The experiment has as its target complement C1q (Homo sapiens, UniProt P02745, C1q succinimidyl alkyne-labeled, Fz8 CRD IgG/Fc fusion). The experiment in a line: pull-down with ELISA quantification, Scatchard. (In general: In an ELISA, binding on a coated surface is turned into a signal by an enzyme label.)

B1: Frizzled-8 (Fz8/Fc) CRD (protein)
chain: AKELACQEITVPLCKGIGYNYTYMPNQFNHDTQDEAGLEVHQFWPLVEIQCSPDLKFFLCSMYTPICLEDYKKPLPPCRSVCERAKAGCAPLMRQYGFAWPDRMRCDRLPEQGNPDTLCMDY
What is called Kd is the free concentration of one partner at which half of the binding sites on the other are occupied at equilibrium, for simple one-to-one binding. Read a low Kd as higher affinity. B1 returned a Kd of 2.8 nM.
